Assay results taken from patent publication US20230272446A1 (University of Washington, published 2023).

B1: DHR49 (designed helical repeat protein 49) (other)
chain: MDSEEEQERIRRILKEARKSGTEESLRQAIEDVAQLAKKSQDSEVLEEAIRVILRIAKESGSEEALRQAIRAVAEIAKEAQDSEVLEEAIRVILRIAKESGSEEALRQAIRAVAEIAKEAQDPRVLEEAIRVIRQIAEESGSEEARRQAERAEEEIRRRAQGWLEHHHHHH
B2: DHR76 (designed helical repeat protein 76) (other)
chain: MNPELEEWIRRAKEVAKEVEKVAQRAEEEGNPDLRDSAKELRRAVEEAIEEAKKQGNPELVEWVARAAKVAAEVIKVAIQAEKEGNRDLFRAALELVRAVIEAIEEAVKQGNPELVEWVARAAKVAAEVIKVAIQAEKEGNRDLFRAALELVRAVIEAIEEAVKQGNPELVERVARLAKKAAELIKRAIRAEKEGNRDERREALERVREVIERIEELVRQGGWLEHHHHHH

Molecular target: the molecule itself
Test: analytical size exclusion chromatography with multi-angle light scattering (SEC-MALS); self-association (homodimer)

Protein | binding result
B1 | binds
B2 | binds
